Experimental data taken from patent US20230295336A1 (INHIBRX, published 2023).

B1: cx6084 (bispecific antibody, human IgG1, kappa)
chain 1: EVQLVESGGGLVQPGGSLRLSCAASGFTFSSFGMHWVRQAPGKGLEWVAYISSDSSAIYYADTVKGRFTISRDNAKNSLYLQMNSLRDEDTAVYYCGRGRENIYYGSRLDYWGQGTTVTVSSASTKGPSVFPLAPSSKSTSGGTAALGCLVKDYFPEPVTVSWNSGALTSGVHTFPAVLQSSGLYSLSSVVTVPSSSLGTQTYICNVNHKPSNTKVDKKVEPKSCDKTHTCPPCPAPPVAGPSVFLFPPKPKDTLMISRTPEVTCVVVDVKHEDPEVKFNWYVDGVEVHNAKTKPREEEYNSTYRVVSVLTVLHQDWLNGKEYKCKVSNKALPAPIEKTISKAKGQPREPQVYTLPPSREEMTKNQVSLTCDVSGFYPSDIAVEWESDGQPENNYKTTPPVLDSDGSFFLYSKLTVDKSRWEQGDVFSCSVMHEALHNHYTQKSLSLSPGKGGGGSGGGGSGGGGSEVQLVESGGGLVQPGGSLRLSCAASGFTFNTYAMNWVRQAPGKCLEWVARIRSKYNNYATYYADSVKGRFTISRDDAKNTLYLQMSSLRAEDTAVYYCVRHGNFGNSYVSWFAYWGQGTLVTVKP
chain 2: EVQLVESGGGLVQPGGSLRLSCAASGFTFSSFGMHWVRQAPGKGLEWVAYISSDSSAIYYADTVKGRFTISRDNAKNSLYLQMNSLRDEDTAVYYCGRGRENIYYGSRLDYWGQGTTVTVSSASTKGPSVFPLAPSSKSTSGGTAALGCLVKDYFPEPVTVSWNSGALTSGVHTFPAVLQSSGLYSLSSVVTVPSSSLGTQTYICNVNHKPSNTKVDKKVEPKSCDKTHTCPPCPAPPVAGPSVFLFPPKPKDTLMISRTPEVTCVVVDVKHEDPEVKFNWYVDGVEVHNAKTKPREEQYNSTYRVVSVLTVLHQDWLNGKEYKCKVSNKALPAPIEKTISKAKGQPREPQVYTLPPSREQMTKNQVKLTCLVKGFYPSDIAVEWESNGQPENNYKTTPPVLDSDGSFFLYSKLTVDKSRWQQGNVFSCSVMHEALHNHYTQKSLSLSPGKGGGGSGGGGSGGGGSQAVVTQEPSLTVSPGGTVTLTCGSSTGAVTTSNYANWVQQKPGQAFRGLIGGTNKRAPGVPARFSGSLLGGKAALTISGAQPEDEADYYCALWYSNHWVFGCGTKLEIK
light: DIQLTQSPSFLSASVGDRVTITCKASQNVDTNVAWYQQKPGKAPKALIYSASYRYSGVPSRFSGSGSGTDFTLTISSLQPEDFATYYCQQYNNYPFTFGQGTKLEIKRTVAAPSVFIFPPSDEQLKSGTASVVCLLNNFYPREAKVQWKVDNALQSGNSQESVTEQDSKDSTYSLSSTLTLSKADYEKHKVYACEVTHQGLSSPVTKSFNRGEC
notes: Three polypeptides; B7H3 Fab on both Fc chains; anti-CD3 Fv disulfide-stabilized (VH G44C / VL G100C); also called MAB-dsFV; B7H3-targeted constrained CD3 engaging construct (Fab format)
B2: cx1356 (bispecific antibody)
chain 1: not shown
chain 2: QLQLQESGGGLVQPGGSLRLSCAASGFTLDNYAIGWFRQAPGKEREGVSCISSSDGSTYYADSVKGRFTISRNNAKGTVYLLMNSLKPEDTAVYYCATELVPACTYSNGRGPLDGMDYWGKGTQVTVKPPGGGGDKTHTCPPCPAPELLGGPSVFLFPPKPKDTLMRSRTPEVTCVVVDVSHEDPEVKFNWYVDGVEVHNAKTKPREEQYNSTYRVVSVLTVLHQDWLNGKEYKCKVSNKALPAPIEKTISKAKGQPREPQVCTLPPSRDELTKNQVSLSCAVKGFYPSDIAVEWESNGQPENNYKTTPPVLDSDGSFFLVSKLTVDKSRWQQGNVFSCSVMHEALHNHYTQKSLSLSPGGSQAVVTQEPSLTVSPGGTVTLTCGSSTGAVTTSNYANWVQQKPGKSPRGLIGGTNKRAPGVPARFSGSLLGGKAALTISGAQPEDEADYYCALWYSNHWVFGCGTKLTVLGGGGEVQLLESGGGEVQPGGSLRLSCAASGSIFSIDATAWYRQAPGKQRELVAIITSSGSTNYPESVKGRFTISRDNAKNTVYLQMSSLRAEDTAVYYCNAITRYGGSTYDFWGQGTLVTVKP
notes: Heterodimer of chain 1 and chain 2; anti-CD3 Fv disulfide-stabilized (VH G44C / VL G100C); the shortest entry is written; also called FRα-targeting constrained CD3 engaging construct; gs3 linker
B3: cx6080 (bispecific antibody)
chain 1: EVQLVESGGGEVQPGGSLRLSCAASGFSFSSNVMMWVRQAPGKGLEWVSTIYSSGTGTFYAESVKGRFTISRDNAKNTLYLQMSSLRPEDTAVYYCATSGPVRGWGPRSQGTLVTVKPPGGGGDKTHTCPPCPAPPVAGPSVFLFPPKPKDTLMISRTPEVTCVVVDVKHEDPEVKFNWYVDGVEVHNAKTKPREEEYNSTYRVVSVLTVLHQDWLNGKEYKCKVSNKALPAPIEKTISKAKGQPREPQVYTLPPSREEMTKNQVSLTCDVSGFYPSDIAVEWESDGQPENNYKTTPPVLDSDGSFFLYSKLTVDKSRWEQGDVFSCSVMHEALHNHYTQKSLSLSPGKGGGGSGGGGSGGGGSEVQLVESGGGLVQPGGSLRLSCAASGFTFSTYAMNWVRQAPGKCLEWVGRIRSKYNNYATYYADSVKGRFTISRDDSKNTLYLQMNSLRAEDTAVYYCVRHGNFGDSYVSWFAYWGQGTLVTVSS
chain 2: EVQLVESGGGEVQPGGSLRLSCAASGFSFSSNVMMWVRQAPGKGLEWVSTIYSSGTGTFYAESVKGRFTISRDNAKNTLYLQMSSLRPEDTAVYYCATSGPVRGWGPRSQGTLVTVKPPGGGGDKTHTCPPCPAPPVAGPSVFLFPPKPKDTLMISRTPEVTCVVVDVKHEDPEVKFNWYVDGVEVHNAKTKPREEQYNSTYRVVSVLTVLHQDWLNGKEYKCKVSNKALPAPIEKTISKAKGQPREPQVYTLPPSREQMTKNQVKLTCLVKGFYPSDIAVEWESNGQPENNYKTTPPVLDSDGSFFLYSKLTVDKSRWQQGNVFSCSVMHEALHNHYTQKSLSLSPGKGGGGSGGGGSGGGGSQAVVTQEPSLTVSPGGTVTLTCGSSTGAVTTSNYANWVQQKPGKSPRGLIGGTNKRAPGVPARFSGSLLGGKAALTISGAQPEDEADYYCALWYSNHWVFGCGTKLTVL
notes: Heterodimer of chain 1 and chain 2; anti-CD3 Fv disulfide-stabilized (VH G44C / VL G100C); two identical B7H3 sdAbs, both N-terminal to the Fc; also called cs6080; B7H3-targeting constrained CD3 engaging construct
B4: cx681 (bispecific antibody)
chain 1: not shown
chain 2: QLQLQESGGGLVQPGGSLRLSCAASGFTLDNYAIGWFRQAPGKEREGVSCISSSDGSTYYADSVKGRFTISRNNAKGTVYLLMNSLKPEDTAVYYCATELVPACTYSNGRGPLDGMDYWGKGTQVTVKPPGGGGDKTHTCPPCPAPELLGGPSVFLFPPKPKDTLMRSRTPEVTCVVVDVSHEDPEVKFNWYVDGVEVHNAKTKPREEQYNSTYRVVSVLTVLHQDWLNGKEYKCKVSNKALPAPIEKTISKAKGQPREPQVCTLPPSRDELTKNQVSLSCAVKGFYPSDIAVEWESNGQPENNYKTTPPVLDSDGSFFLVSKLTVDKSRWQQGNVFSCSVMHEALHNHYTQKSLSLSPGGSGGGGSGGGGSGGGGSQAVVTQEPSLTVSPGGTVTLTCGSSTGAVTTSNYANWVQQKPGKSPRGLIGGTNKRAPGVPARFSGSLLGGKAALTISGAQPEDEADYYCALWYSNHWVFGCGTKLTVLGGGGEVQLLESGGGEVQPGGSLRLSCAASGSIFSIDATAWYRQAPGKQRELVAIITSSGSTNYPESVKGRFTISRDNAKNTVYLQMSSLRAEDTAVYYCNAITRYGGSTYDFWGQGTLVTVKP
notes: Heterodimer of chain 1 and chain 2; anti-CD3 Fv disulfide-stabilized (VH G44C / VL G100C); the shortest entry is written; also called FRα-targeting constrained CD3 engaging construct; gs18 linker

What was measured:
[1] = biological target: T1, CD3 on the surface of primary T cells (human, UniProt P07766 23-207); experiment: flow cytometry on isolated primary human T cells
T1 construct: whole, on cells; CD3 is a multimeric complex (ε, γ, δ, ζ chains) with the TCR; In the reporter assays CD3 stood on Jurkat cells; also called CD3ε
T1 sequence (P07766 23-207): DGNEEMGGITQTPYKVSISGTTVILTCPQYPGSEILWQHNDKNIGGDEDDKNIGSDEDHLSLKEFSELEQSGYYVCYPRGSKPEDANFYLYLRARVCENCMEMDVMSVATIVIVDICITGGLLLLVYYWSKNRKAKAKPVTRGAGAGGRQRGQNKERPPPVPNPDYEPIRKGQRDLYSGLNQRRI
Method: (§1) Binding of exemplary multispecific constructs containing an antigen-binding domain directed against B7H3 were assessed for binding to B7H3 positive A375 tumor cells or primary T-cells. The constructs were generated containing antigen-binding domain(s) that were either sdAbs or a FABs, and that were positioned either only N-terminal to the Fc or both N-terminal to the Fc and C-terminal to the anti-CD3 binding domain (see FIGS. 3A and 3C and Table E1.1). Among the various formats of constructs tested included: sdAb-Fc-dsFV-sdAb (cx3072, cx5952) sdAb-Fc-FV (cx6079), sdAb-Fc-dsFV (cs6080, cx6081), MAB-FV (cx5067) and MAB-dsFV (cx6083, cx6084), where the FV represents the anti-CD3 binding domain composed of VH and VL domain pairs and “ds” notes disulfide stabilized via an engineered interdomain disulfide bond.
(§2) Binding was assessed as described above via flow cytometry using a fluorophore-conjugated anti-human Fc secondary antibody. cx3072 bound to A375 cells with high affinity (FIG. 6A) but not to isolated T-cells (FIG. 6B). […] The B7H3-targeting sdAb containing constructs (cx5952, cx6079, cx6080, and cx6081) bound to B7H3 positive cells with similar affinities (depicted in FIG. 6E), with cx5952 displaying higher maximal binding. cx6079, cx6080 and cx6081 contain two identical B7H3-targeting sdAbs, whereas cx5952, and cx3072 contain two distinct B7H3-targeting sdAb that bind different epitopes. The MAB-FV, cx5067, contains two identical B7H3-targeting FAB domains.

B7H3 (CD276) [2] = biological target: T2, B7H3 (CD276) (human, UniProt Q5ZPR3 29-534); experiment: flow cytometry on A375 cells, anti-human Fc secondary
T2 construct: whole, on cells
T2 sequence (looked up): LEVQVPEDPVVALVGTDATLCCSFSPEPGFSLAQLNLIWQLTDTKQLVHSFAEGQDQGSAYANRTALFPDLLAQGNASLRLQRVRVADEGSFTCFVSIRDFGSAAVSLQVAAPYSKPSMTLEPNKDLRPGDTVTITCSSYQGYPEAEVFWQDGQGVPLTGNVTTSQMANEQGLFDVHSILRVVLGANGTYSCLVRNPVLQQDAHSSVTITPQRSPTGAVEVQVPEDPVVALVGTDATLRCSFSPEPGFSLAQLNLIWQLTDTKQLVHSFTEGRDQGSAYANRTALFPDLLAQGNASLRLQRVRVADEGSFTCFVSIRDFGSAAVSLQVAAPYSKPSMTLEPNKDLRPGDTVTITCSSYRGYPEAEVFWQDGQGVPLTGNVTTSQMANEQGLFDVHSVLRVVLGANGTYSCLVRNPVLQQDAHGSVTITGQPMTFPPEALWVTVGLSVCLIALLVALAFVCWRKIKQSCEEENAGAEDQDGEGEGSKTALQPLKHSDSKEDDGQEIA
Method: as §1, §2

[3] = biological target: T1, CD3 on the surface of primary T cells; experiment: flow cytometry on isolated primary T cells, anti-human IgG Fc secondary
Method: (§3) Binding of exemplary multispecific polypeptide constructs of the disclosure containing an antigen-binding domain directed against Folate Receptor Alpha (FRα) to CD3 on the surface of primary T cells and to FRα expressing cells (Ovcar-5) was assessed by flow cytometry. The tumor antigen binding domains of the tested constructs bind the Folate Receptor Alpha (FRα), which is not expressed on the primary T cells. The tested constructs included cx1356 and cx681, containing a non-cleavable linker of 3 amino acids in cx1356 or a non-cleavable linker of 18 amino acids in cx681 (see FIG. 2B and Table E1.1).
(§4) For the studies described in FIGS. 5A and 5B, 100 nM of each construct, cx1356 or cx681 was used and assessed for binding to either the Ovcar-5 cells or primary T-cells. An anti-CD3 antibody was included as a control. A titration of the constrained CD3 engaging constructs on either FRα expressing cells (Ovcar-5; FIG. 5C) or isolated primary T-cells (FRα negative; FIG. 5D), was conducted to assess binding. Bound constructs were detected using fluorophore-conjugated anti-human IgG Fc secondary antibody.

[4] = biological target: T3, Folate Receptor Alpha (FRα) (UniProt P15328 25-234, limits assumed); experiment: flow cytometry on Ovcar-5 cells, anti-human IgG Fc secondary
T3 construct: whole, on cells; also called FR-Alpha
T3 sequence (P15328 25-234 limits assumed): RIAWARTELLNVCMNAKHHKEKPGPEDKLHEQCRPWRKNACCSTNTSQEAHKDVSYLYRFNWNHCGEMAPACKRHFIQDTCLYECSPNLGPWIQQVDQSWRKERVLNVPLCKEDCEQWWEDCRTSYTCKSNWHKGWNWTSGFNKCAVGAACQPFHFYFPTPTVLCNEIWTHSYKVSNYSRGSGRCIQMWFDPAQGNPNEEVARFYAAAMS
Method: as §3, §4

B7H3 (CD276) [5] = biological target: T2, B7H3 (CD276); experiment: flow cytometry on A375 cells
Method: as §1
Binding was assessed as described above via flow cytometry using a fluorophore-conjugated anti-human Fc secondary antibody. cx3072 bound to A375 cells with high affinity (FIG. 6A) but not to isolated T-cells (FIG. 6B). […]

Row | Binder | binding result [1] | binding result (B7H3 (CD276) [2]) | binding result [3] | binding result [4] | binding result (B7H3 (CD276) [5])
1 | B1 | no binding | binds |  |  | 
2 | B2 |  |  | no binding (tested: 100 nM) | binds | 
3 | B3 | no binding |  |  |  | binds
4 | B4 |  |  | no binding (tested: 100 nM) | binds | 
